# Measured values taken from publication PMC3170926 (Bioconjugate chemistry, 2011).
# Where two headings read alike, the source gives them in different places.
# B1: c(RGDyK) peptide (peptide)
# peptide: cyclo(RGDYK)
# modifications: not fully specified (residue 4)
# How the values were obtained:
# [1] = cited from earlier work; for thermodynamic stability constant log K: Ga(III) complex
# [2] = design: species or system SCID mice; details: mouse, in vivo, tumor uptake
# [3] = test system: integrin αvβ3 positive PC-3 tumor xenografts; design: species or system SCID mice; details: mouse, in vivo
# [4] = design: species or system SCID mice; details: mouse, in vivo
# [5] = design: species or system SCID mice; details: mouse, in vivo; remark: listed apart in the source
# [6] = design: species or system SCID mice; details: mouse, in vivo; remark: listed apart in the source
# [7] = test system: integrin αvβ3 positive PC-3 tumor xenografts; design: species or system SCID mice; details: mouse, in vivo; remark: listed apart in the source
# [8] = molecular target: integrin αvβ3 (human (endogenous in U87MG), UniProt P06756 31-1048; P05106 27-788); experiment: radioligand binding
# Sequence of integrin αvβ3 (P06756 31-1048, chain 1 of 2): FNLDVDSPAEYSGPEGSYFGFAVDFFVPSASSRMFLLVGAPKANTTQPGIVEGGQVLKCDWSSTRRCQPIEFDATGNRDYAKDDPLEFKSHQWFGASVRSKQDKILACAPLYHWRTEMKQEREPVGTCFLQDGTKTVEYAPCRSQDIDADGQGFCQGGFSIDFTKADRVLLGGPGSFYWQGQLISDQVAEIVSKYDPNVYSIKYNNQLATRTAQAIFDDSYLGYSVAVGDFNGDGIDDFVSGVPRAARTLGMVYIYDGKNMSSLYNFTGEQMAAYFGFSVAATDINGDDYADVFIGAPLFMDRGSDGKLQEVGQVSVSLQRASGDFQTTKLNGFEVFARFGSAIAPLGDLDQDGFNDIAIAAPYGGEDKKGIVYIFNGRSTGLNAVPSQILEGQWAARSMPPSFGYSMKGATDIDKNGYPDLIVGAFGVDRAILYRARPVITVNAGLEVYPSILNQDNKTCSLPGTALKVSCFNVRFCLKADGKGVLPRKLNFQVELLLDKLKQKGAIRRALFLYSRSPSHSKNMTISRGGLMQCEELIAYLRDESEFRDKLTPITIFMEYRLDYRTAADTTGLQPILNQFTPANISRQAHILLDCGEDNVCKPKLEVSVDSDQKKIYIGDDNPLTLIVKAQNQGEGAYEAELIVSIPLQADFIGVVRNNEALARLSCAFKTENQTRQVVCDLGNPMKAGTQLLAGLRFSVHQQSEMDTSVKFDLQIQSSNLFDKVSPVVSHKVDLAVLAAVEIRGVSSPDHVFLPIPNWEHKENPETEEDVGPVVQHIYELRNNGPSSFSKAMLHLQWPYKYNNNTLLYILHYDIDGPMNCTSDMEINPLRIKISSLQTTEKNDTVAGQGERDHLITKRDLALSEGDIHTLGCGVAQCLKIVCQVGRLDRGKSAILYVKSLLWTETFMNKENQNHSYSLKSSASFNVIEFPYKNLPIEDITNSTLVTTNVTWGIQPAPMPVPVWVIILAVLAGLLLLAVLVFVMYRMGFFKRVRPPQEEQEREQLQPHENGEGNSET
# Sequence of integrin αvβ3 (P05106 27-788, chain 2 of 2): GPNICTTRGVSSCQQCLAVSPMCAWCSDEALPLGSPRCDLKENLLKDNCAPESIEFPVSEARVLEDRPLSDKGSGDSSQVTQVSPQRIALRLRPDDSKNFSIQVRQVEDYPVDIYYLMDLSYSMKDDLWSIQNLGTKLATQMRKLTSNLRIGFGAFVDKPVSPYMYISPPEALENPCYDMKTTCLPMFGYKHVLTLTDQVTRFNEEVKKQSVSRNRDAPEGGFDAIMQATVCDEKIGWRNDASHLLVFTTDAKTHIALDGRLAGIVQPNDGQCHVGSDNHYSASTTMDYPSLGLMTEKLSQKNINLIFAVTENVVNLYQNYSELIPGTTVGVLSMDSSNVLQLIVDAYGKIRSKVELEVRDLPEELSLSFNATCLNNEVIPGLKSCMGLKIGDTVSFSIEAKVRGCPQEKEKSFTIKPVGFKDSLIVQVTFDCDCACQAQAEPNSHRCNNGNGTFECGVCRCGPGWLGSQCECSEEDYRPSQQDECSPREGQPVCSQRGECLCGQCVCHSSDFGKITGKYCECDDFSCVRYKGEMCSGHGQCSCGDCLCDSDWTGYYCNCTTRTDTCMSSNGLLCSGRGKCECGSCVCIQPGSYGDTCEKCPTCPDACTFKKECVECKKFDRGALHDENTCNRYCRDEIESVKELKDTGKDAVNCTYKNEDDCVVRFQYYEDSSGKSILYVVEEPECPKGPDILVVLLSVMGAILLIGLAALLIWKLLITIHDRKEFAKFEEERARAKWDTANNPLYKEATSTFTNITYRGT
molecule,measurement,setting,value
O=C([O-])CN1CCN(CC(=O)[O-])CCN(CC(=O)O)CCN(CC(=O)[O-])CC1.[Ga+3] [DOTA complex with Ga(III)],thermodynamic stability constant log K,[1]; ref 39,21.33
O=C([O-])CN1CCN(CC(=O)[O-])CCN(CC(=O)[O-])CC1.[Ga+3] [Ga(III)-NOTA complex],acid-catalyzed dissociation,[1]; 6N HNO3 for 6 days,stay inert against the acid-catalyzed dissociation
same,thermodynamic stability constant log K,"[1]; ref 22, 24",30.98
same,thermodynamic stability constant log K,[1]; ref 24,30.98
O=C([O-])CN1CCN(CC(=O)[O-])CCN(C(CC(=O)O)C(=O)[O-])CC1.[Ga+3] (stereo not shown) [Ga-NODASA],thermodynamic stability constant log K,[1]; ref 24,30.9
"N=C(N)NCCC[C@@H]1NC(=O)[C@H](CCCCNC(=S)Nc2ccc(C[C@H]3CN(CC(=O)O)CCN(CC(=O)O)CCN3CC(=O)O)cc2)NC(=O)[C@@H](Cc2ccc(O)cc2)NC(=O)[C@H](CC(=O)O)NC(=O)CNC1=O [^68Ga-1a, metal not drawn]",tissue uptake at 2 h,[2],1.4 ± 0.36 %ID/g
same,tumor uptake retention at 2 h p.i.,[3],43%
same,metabolites in urine by radio-HPLC,[4],no metabolites were detected
same,half-life,"[5]; t1/2(α), distribution half-life",4 ± 1.1 min
same,half-life,"[5]; t1/2(β), terminal half-life",29.8 ± 7.1 min
same,tissue uptake at 0.5 h,[6]; kidney uptake,6.25 ± 0.61 %ID/g
same,tissue uptake at 2 h,[6]; kidney uptake,2.95 ± 0.76 %ID/g
same,tissue uptake at 0.5 h,[6]; liver uptake,1.98 ± 0.29 %ID/g
same,tissue uptake at 2 h,[6]; tumor uptake,1.63 ± 0.19 %ID/g
same,kidney uptake retained at 2 h p.i.,[7],less than 60%
B1,IC50,[8],204 nM
